Data on two molecules can be found in patent publication US20220306757A1 (HANGZHOU SUMGEN BIOTECH, published 2022).

Experiment [1] deals with T1, BCMA on the surface of human myeloma U266 cells (human, UniProt Q02223 1-184).
T1 sequence (looked up): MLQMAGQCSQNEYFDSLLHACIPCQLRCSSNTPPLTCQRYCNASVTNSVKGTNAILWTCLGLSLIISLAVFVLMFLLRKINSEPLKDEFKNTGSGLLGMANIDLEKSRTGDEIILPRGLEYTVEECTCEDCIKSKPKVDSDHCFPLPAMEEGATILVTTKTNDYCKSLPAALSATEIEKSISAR
Put plainly: cell-based or functional assay.

The target in experiment [2] is T2, BCMA on CHOS cells stably expressing BCMA (CHOS-BCMA) (UniProt Q02223 1-184).
T2 sequence (looked up): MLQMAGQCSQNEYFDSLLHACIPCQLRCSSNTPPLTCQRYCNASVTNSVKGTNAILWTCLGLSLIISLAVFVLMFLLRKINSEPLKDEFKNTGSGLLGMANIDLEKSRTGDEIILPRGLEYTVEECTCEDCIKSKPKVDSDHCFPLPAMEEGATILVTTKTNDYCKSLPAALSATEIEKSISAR
Put plainly: cell-based or functional assay.

In experiment [3] the target is T3, recombinant BCMA-His (ACRO Biosystems) (UniProt Q02223 1-54).
T3 construct: also called target antigen BCMA; antigen BCMA; not shown: His tag
T3 sequence (looked up): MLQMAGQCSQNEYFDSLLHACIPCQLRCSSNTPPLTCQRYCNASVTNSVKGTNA
Put plainly: SPR (BIACORE), antibody captured by anti-human IgG, BCMA as mobile phase 0.15625-20 nM. The procedure: The antibody affinity was analyzed with BIACORE biomacromolecular interaction analyzer (GE Co.). Anti-human IgG antibodies (purchased from GE) were coupled on a chip, and utilized to capture the SG1116 antibody, of which the concentration was set as 3 μg/mL, and the sampling time was 120 seconds; with the antigen BCMA as the mobile phase, a gradient of 8 concentrations (0.15625, 0.3125, 0.625, 1.25, 2.5, 5, 10, 20 nM) was used, and the binding time was 120 seconds; the dissociation time was 300 seconds; each antibody was regenerated using 3 M of magnesium chloride (purchased from GE) for a time period of 30 seconds.
(In SPR one partner is held on a chip, and binding of the other changes the refractive index at the surface.)

For experiment [4], the target named is T3, recombinant BCMA-His (ACRO Biosystems). Put plainly: ELISA, BCMA-His coated at 1 µg/ml, anti-human IgG HRP detection. On the procedure: ELISA strips were coated with the target antigen BCMA-His at 1 μg/ml, overnight at 4° C. After washing with PBST, 10% of fetal calf serum was added for blocking at 37° C. for 1 hour. Different concentrations of the antibody SG1116 was added to react at 37° C. for 1 hour. After washing with PBST, horseradish peroxidase-labeled goat anti-human IgG secondary antibody (Goat anti human ([…]), thermo Fisher Scientific) was added to react at 37° C. for 30 minutes. The plate was washed with PBST repeatedly for 5 times, and patted on absorbent paper so as to dry the remaining droplets as much as possible. Each well was added with […] TMB (eBioscience), placed in dark at room temperature (20±5° C.) for 1.5 min. Each well was added with 100 μl of 2N H₂SO₄ stop solution to terminate the reaction of the substrate. The OD values at 450 nm were read with a Microplate reader. The binding ability of the antibody to the target antigen BCMA was analyzed.
(In general: In an ELISA, binding on a coated surface is turned into a signal by an enzyme label.)

For experiment [5], the target named is T2, BCMA on CHOS cells stably expressing …. The experiment in a line: flow cytometry on CHOS-BCMA cells, PE anti-human IgG detection. The procedure:
(§1) With human myeloma U266 cells as well as CHOS cells (CHOS-BCMA) stably expressing BCMA constructed by genetic engineering technology as representative cell models, the binding of BCMA on the cell surface to SG1116 was analyzed by flow cytometry. Cells at the logarithmic growth phase were collected, adjusted to a cell density of 5×10⁶ cells/mL, and precooled on ice. The SG1116 antibody was diluted with pre-cooled normal saline containing 2% FBS to 20 μg/ml. 100 μl of cells were taken and added into an equal volume of the above diluted SG1116 antibody, and reacted in dark at 4° C. for 30 min. At the end of the reaction, they were washed twice with pre-cooled normal saline containing 2% FBS (6000 rpm, 45 s). A secondary antibody PE mouse anti-human IgG (BD Pharmingen) was diluted with pre-cooled normal saline containing 2% FBS at a ratio of 1:5. 100 μl of cells were taken and resuspended, and reacted in dark at 4° C. for 30 min. At the end of the reaction, they were washed twice with pre-cooled normal saline containing 2% FBS (6000 rpm, 45 s). The cells were resuspended with 400 μl of 1% (v/v) paraformaldehyde. The binding ability of the antibody to the antigen on the cell surface was analyzed with a flow cytometer (BD Calibur).
In general terms: A flow cytometer gives signals particle by particle.

Experiment [6] concerns the target T1, BCMA on the surface of human myeloma …. The experiment in a line: flow cytometry on U266 cells, PE anti-human IgG detection. The procedure:
as §1

Experiment [7] has as its target T4, CD47 (Sino Biological Inc.) (UniProt Q08722 19-139).
T4 construct: Specificity control
The experiment in a line: ELISA, proteins coated at 1 ug/ml, HRP goat anti-human IgG, OD450. On the procedure:
(§2) ELISA strips were coated with milk (Beijing Biomed Biotech Co., Ltd.), BSA (BOVOGEN), CD19 (Sino Biological Inc.), TROP2 (Sino Biological Inc.), BCMA (ACRO Biosystems), CD47 (Sino Biological Inc.), CD38 (Sino Biological Inc.), Gas6 (R&D) and various proteins as well as AXL (ACRO Biosystems), respectively, at 1 μg/ml, overnight at 4° C. After washing with PBST, 10% of fetal calf serum was added for blocking at 37° C. for 1 hour. The antibody SG1116 was added to react at 37° C. for 1 hour. After washing with PBST, horseradish peroxidase-labeled goat anti-human IgG secondary antibody (Goat anti human (HRP), Thermo Fisher Scientific) was added to react at room temperature for 30 minutes. The plate was washed with PBST repeatedly for 5 times, and patted on absorbent paper so as to dry the remaining droplets as much as possible. Each well was added with 100 μl TMB (eBioscience, #85-00-420), placed in dark at room temperature ([…]) for 1.5 min. Each well was added with 100 μl of 2N H₂SO₄ stop solution to terminate the reaction of the substrate. The OD values at 450 nm were read with a Microplate reader. The binding ability of the antibody to protein was analyzed.

Another experiment concerns the target T5, BSA (BOVOGEN) (UniProt P02769 25-607).
T5 construct: Specificity control
The experiment is described as above. On the procedure: as §2

In experiment [8] the target is T6, TROP2 (Sino Biological Inc.) (UniProt P09758 27-274).
T6 construct: Specificity control
T6 sequence (looked up): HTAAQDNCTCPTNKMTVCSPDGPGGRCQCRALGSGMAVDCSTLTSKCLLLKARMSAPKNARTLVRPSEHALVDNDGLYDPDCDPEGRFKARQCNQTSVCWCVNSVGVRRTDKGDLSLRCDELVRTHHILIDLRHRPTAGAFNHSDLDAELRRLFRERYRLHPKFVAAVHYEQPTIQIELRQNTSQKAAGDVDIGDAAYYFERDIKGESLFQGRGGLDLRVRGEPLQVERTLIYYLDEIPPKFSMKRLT
The description is as above. On the procedure: as §2

Another experiment has as its target T7, Gas6 (R&D) (UniProt Q14393 49-678, limits assumed).
T7 construct: Specificity control
T7 sequence (looked up): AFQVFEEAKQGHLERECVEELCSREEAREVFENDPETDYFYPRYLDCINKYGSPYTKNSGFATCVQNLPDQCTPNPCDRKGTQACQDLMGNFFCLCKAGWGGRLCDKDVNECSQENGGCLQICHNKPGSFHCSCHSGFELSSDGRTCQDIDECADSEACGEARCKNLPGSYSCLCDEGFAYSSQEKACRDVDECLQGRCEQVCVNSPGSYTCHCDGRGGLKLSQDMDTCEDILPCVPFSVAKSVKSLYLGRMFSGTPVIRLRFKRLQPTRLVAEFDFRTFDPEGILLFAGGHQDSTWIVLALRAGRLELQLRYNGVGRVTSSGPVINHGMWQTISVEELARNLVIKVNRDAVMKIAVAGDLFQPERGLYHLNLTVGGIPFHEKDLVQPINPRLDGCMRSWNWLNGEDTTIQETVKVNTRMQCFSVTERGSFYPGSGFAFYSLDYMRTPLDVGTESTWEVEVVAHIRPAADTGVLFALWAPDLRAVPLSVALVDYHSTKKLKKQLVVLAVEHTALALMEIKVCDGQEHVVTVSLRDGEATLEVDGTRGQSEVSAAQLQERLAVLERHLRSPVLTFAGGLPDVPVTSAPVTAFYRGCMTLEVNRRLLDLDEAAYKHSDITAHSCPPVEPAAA
The description is as above. On the procedure:
as §2

In experiment [9] the target is T8, CD19 (Sino Biological Inc.) (UniProt P15391 20-291).
T8 construct: Specificity control
T8 sequence (looked up): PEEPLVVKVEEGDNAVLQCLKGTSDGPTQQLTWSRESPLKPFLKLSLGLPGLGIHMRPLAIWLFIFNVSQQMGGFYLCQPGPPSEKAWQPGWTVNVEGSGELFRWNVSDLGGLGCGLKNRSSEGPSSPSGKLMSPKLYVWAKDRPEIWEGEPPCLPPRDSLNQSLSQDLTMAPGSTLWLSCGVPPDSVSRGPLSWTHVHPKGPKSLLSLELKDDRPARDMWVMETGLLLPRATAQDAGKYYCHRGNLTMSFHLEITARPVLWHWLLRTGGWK
The description is as above. The procedure: as §2

Experiment [10] concerns the target T9, CD38 (Sino Biological Inc.) (UniProt P28907 43-300).
T9 construct: Specificity control
T9 sequence (looked up): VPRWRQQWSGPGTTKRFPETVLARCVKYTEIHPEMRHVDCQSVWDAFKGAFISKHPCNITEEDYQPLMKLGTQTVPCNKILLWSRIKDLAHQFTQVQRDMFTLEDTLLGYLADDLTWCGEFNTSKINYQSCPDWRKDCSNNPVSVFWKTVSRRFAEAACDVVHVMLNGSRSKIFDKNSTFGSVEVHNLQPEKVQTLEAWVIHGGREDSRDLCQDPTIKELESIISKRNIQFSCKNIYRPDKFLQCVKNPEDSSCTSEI
Described as above. The procedure: as §2

Another experiment has as its target T10, AXL (ACRO Biosystems) (UniProt P30530 33-449, limits assumed).
T10 construct: Specificity control
T10 sequence (looked up): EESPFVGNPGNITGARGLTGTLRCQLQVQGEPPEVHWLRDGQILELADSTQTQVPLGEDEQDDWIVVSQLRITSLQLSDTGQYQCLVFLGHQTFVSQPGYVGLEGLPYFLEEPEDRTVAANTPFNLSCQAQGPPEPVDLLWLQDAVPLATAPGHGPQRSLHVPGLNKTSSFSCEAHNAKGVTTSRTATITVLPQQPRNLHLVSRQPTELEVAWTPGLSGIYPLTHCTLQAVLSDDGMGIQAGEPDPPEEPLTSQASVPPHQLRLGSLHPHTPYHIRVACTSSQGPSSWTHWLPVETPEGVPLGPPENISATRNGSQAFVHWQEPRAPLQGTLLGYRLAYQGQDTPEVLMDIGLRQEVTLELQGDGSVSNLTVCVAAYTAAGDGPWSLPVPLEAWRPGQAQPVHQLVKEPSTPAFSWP
Described as above. The procedure:
as §2

T4 sequence (Q08722 19-139 limits assumed): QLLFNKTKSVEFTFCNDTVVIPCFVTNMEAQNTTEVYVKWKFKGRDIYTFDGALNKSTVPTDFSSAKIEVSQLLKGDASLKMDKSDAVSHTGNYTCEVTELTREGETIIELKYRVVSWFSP
T5 sequence (P02769 25-607 limits assumed): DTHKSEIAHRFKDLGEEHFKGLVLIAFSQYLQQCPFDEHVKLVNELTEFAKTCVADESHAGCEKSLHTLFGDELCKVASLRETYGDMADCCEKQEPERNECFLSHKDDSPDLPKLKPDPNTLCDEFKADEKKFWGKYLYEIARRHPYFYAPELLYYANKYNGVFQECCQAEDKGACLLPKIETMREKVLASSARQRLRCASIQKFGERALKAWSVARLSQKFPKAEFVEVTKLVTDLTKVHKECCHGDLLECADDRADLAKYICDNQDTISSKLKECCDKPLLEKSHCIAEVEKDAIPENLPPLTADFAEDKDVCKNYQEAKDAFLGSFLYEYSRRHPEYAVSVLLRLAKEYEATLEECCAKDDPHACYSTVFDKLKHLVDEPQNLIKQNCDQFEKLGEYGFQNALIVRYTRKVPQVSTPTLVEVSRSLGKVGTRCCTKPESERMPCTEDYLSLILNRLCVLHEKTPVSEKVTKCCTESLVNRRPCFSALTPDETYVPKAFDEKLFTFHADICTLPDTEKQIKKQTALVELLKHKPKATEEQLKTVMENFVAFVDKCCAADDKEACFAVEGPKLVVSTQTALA

B1: SG1116 antibody (antibody, human IgG1, V domains shown)
VH: QVQLVQSGPELKKPGETVKISCKASGYTFSRYSMNWVRQAPGKGLEWMGRINTGSGAPIYADDFKGRFTFSVDTSASTAYLVINNLKSEDTASYFCSNDYNYSLDHWGQGTAVTVSS
VL: DIVLTQSPPSLAMSLGKRATISCRASESVTILGSHLIYWYQQKPGQPPTLLIQLASNVQTGVPARFSGSGSRTDFTLTIDPVEEDDVAVYYCLQSRTIPRTFGGGTKLEIK
notes: also called antibody SG1116; SGT116
For the molecule B1, the “internalization efficiency EC50 (flow cytometry, surface MFI at 4°C against 37°C)” value came to 0.178 µg/mL in experiment [1] and 0.00327 µg/mL in experiment [2]. In addition, in experiment [3], the Kd was found to be 1.39 nM. The koff in [3] was determined as 0.0171 s⁻¹. For the same molecule, in experiment [3], the kon came to 1.23e+07 M⁻¹ s⁻¹. Further, the EC50 in [4] stood at 0.0565 µg/mL; in experiment [5], 0.622 µg/mL; in [6], 4.29 µg/mL. For the same molecule, the binding result (in experiment [7]; with BSA (BOVOGEN); in [8]; with Gas6 (R&D); in experiment [9]; in [10]) was “no binding” throughout. In addition, in the experiment with AXL (ACRO Biosystems), the binding result is recorded as “no binding”.

B2: immunoconjugate SG1116-DM1 (antibody, V domains shown)
VH: QVQLVQSGPELKKPGETVKISCKASGYTFSRYSMNWVRQAPGKGLEWMGRINTGSGAPIYADDFKGRFTFSVDTSASTAYLVINNLKSEDTASYFCSNDYNYSLDHWGQGTAVTVSS
VL: DIVLTQSPPSLAMSLGKRATISCRASESVTILGSHLIYWYQQKPGQPPTLLIQLASNVQTGVPARFSGSGSRTDFTLTIDPVEEDDVAVYYCLQSRTIPRTFGGGTKLEIK
modifications: maytansine derivative DM1 linked through SMCC; conjugation residues and chain not stated
For the molecule B2, the “IC50 of inhibition of proliferation (CCK-8, 72 hours)” value in experiment [1] was found to be 0.347 nM.

A word on the Kd: it is the free concentration of one partner at which half of the binding sites on the other are occupied at equilibrium, for simple one-to-one binding. One may read the koff as a measure of how fast the partners let go of each other. The kon is a measure of how fast the partners come together. Usually EC50 stands for the concentration that produces a half-maximal response.
